Laboratory results reported in PMC3778244 (Genes & Development, 2013).
Where a chain is given by its changes, count along the chain named. Names may count otherwise. Each block holds one binder with its values, some of them ahead of it.

Columns and labels:
Poz1 (recombinant) = target: T1, Poz1 (recombinant) (S. pombe, UniProt O13852 1-249); test: pull-down
T1 sequence: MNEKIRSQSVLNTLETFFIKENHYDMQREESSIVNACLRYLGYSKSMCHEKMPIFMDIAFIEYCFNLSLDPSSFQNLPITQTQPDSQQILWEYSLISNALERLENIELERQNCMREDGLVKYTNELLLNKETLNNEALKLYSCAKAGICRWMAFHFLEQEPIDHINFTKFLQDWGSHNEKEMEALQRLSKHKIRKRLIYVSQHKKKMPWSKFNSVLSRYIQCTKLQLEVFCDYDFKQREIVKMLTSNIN

[1] = target: T2, Ccq1 N-terminal domain (Ccq1-NTD; residues 2-439) (S. pombe, UniProt Q10432 2-439); test: pull-down
T2 sequence: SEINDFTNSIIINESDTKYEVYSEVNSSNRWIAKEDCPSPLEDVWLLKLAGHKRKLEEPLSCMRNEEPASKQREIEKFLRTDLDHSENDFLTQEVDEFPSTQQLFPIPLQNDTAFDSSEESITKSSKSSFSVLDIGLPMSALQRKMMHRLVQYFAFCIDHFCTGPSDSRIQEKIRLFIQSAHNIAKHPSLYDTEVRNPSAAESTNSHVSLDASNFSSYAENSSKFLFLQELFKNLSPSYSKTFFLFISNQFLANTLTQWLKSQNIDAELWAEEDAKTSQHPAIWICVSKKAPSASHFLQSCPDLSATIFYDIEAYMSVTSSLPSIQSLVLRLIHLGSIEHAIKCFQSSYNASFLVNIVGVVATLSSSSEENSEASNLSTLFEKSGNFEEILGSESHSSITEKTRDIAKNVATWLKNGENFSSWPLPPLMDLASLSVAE

binding result (Poz1 (recombinant)): binds
binding result [1]: binds
B1: GST-Tpz1-CTD (Tpz1 C-terminal domain, residues 406-508) (domain or fragment)
chain: SSVISCTPPAINFTSDICNEQIELEYKRKPIPDYDFMKGLETTLQELYVEHQSKKRRLELFQLTNNHQKNSEACEMCRLGLPHGSFFELLRDWKKIEEFRNKS

binding result [1]: binds
B2: GST-Tpz1-CTD I501R (domain or fragment)
chain: B1 chain with I96R

binding result (Poz1 (recombinant)): binds
B3: GST-Tpz1-CTD L449A (domain or fragment)
chain: B1 chain with L44A
